Data: PMC8671946

Target: HER2/PD-L1 BsAb (humanized bispecific IgG1 subclass antibody targeting both HER2 and PD-L1)
Test: BLI; Octet RED96; antibody (10 ug/ml) immobilised on Protein A biosensors; 6xHis-tagged antigens two-fold serially titrated from 100 nM; PBS with 0.02% Tween 20 and 0.1% BSA, room temperature

Kd: 6.36 nM
Substance: human epidermal growth factor receptor 2 (HER2), recombinant, 6xHis-tagged (from UniProt P04626 23-652)
